Data taken from patent publication US20200264176A1 (MIT, published 2020).
Residue numbers refer to the chain shown, from its start. In names and notes the source's numbering stands.

Tests used:
EDIII-DV3 [1] = molecular target: T1, EDIII-DV3 (Dengue virus serotype 3, UniProt Q6YMS3 579-671); assay: SPR
T1 construct: also called EDIII of DV3; envelope glycoprotein domain III of Dengue virus serotype 3

EDIII-DV1 [2] = molecular target: T2, EDIII-DV1 (Dengue virus serotype 1, UniProt P17763 581-673); assay: SPR
T2 construct: also called EDIII of DV1; envelope glycoprotein domain III of Dengue virus serotype 1

[3] = molecular target: T3, Dengue virus serotype 3 (DV3), envelope (E) glycoprotein on virus (Dengue virus serotype 3); assay: cell-based or functional assay
[4] = molecular target: T4, Dengue virus serotype 2 (DV2), envelope (E) glycoprotein on virus (Dengue virus serotype 2); assay: cell-based or functional assay
[5] = molecular target: T5, Dengue virus serotype 1 (DV1), envelope (E) glycoprotein on virus (Dengue virus serotype 1); assay: cell-based or functional assay
EDIII-DV3 [6] = molecular target: T1, EDIII-DV3; assay: SPR; remark: listed apart in the source
EDIII-DV2 [7] = molecular target: T6, EDIII-DV2 (Dengue virus serotype 2, UniProt P14337 581-673); assay: SPR
T6 construct: also called EDIII of DV2; envelope glycoprotein domain III of Dengue virus serotype 2

EDIII-DV1 [8] = molecular target: T2, EDIII-DV1; assay: SPR; remark: listed apart in the source
EDIII-DV3 [9] = molecular target: T1, EDIII-DV3; assay: competition ELISA
EDIII-DV2 [10] = molecular target: T6, EDIII-DV2; assay: competition ELISA
EDIII-DV1 [11] = molecular target: T2, EDIII-DV1; assay: competition ELISA
EDIII-DV3 [12] = molecular target: T1, EDIII-DV3; assay: competition ELISA, equilibrium in solution
EDIII-DV2 [13] = molecular target: T6, EDIII-DV2; assay: competition ELISA, equilibrium in solution
EDIII-DV1 [14] = molecular target: T2, EDIII-DV1; assay: competition ELISA, equilibrium in solution
EDIII-DV2 [15] = molecular target: T6, EDIII-DV2; assay: SPR; remark: listed apart in the source
[16] = molecular target: T3, Dengue virus serotype 3 (DV3), envelope …; assay: cell-based or functional assay; remark: listed apart in the source
[17] = molecular target: Dengue virus serotype 4 (DV4), envelope (E) glycoprotein on virus (Dengue virus serotype 4); assay: cell-based or functional assay
[18] = molecular target: T4, Dengue virus serotype 2 (DV2), envelope …; assay: cell-based or functional assay; remark: listed apart in the source
[19] = molecular target: T5, Dengue virus serotype 1 (DV1), envelope …; assay: cell-based or functional assay; remark: listed apart in the source
EDIII-DV3 [20] = molecular target: T1, EDIII-DV3; assay: indirect ELISA, coated recombinant EDIII
EDIII-DV2 [21] = molecular target: T6, EDIII-DV2; assay: indirect ELISA, coated recombinant EDIII
EDIII-DV1 [22] = molecular target: T2, EDIII-DV1; assay: indirect ELISA, coated recombinant EDIII
EDIII-DV4 [23] = molecular target: T7, EDIII-DV4 (Dengue virus serotype 4, UniProt P09866 580-672); assay: indirect ELISA, coated recombinant EDIII
EDIII-DV4 [24] = molecular target: T7, EDIII-DV4; assay: calculated from KD, ΔG = RTln(KD) at 25° C
EDIII-DV4 [25] = molecular target: T7, EDIII-DV4; assay: competition ELISA, equilibrium in solution

B1: 4E11 WT (antibody, V domains shown)
VH: VKLLEQSGAELVKPGASVRLSCTASGFNIKDTYMSWVKQRPEQGLEWIGRIDPANGDTKYDPKFQGKATITADTSSNTAYLHLSSLTSGDTAVYYCSRGWEGFAYWGQGTLVTVSA
VL: ELVMTQTPASLAVSLGQRATISCRASENVDRYGNSFMHWYQQKAGQPPKLLIYRASNLESGIPARFSGSGSRTDFTLTINPVEADDVATYFCQRSNEVPWTFGGGTKLEIKR
notes: also called wt 4E11; WT 4E11
Kd (EDIII-DV3 [1]): 7.58 nM
Kd (EDIII-DV1 [2]): 0.5 nM
IC50 (read off the curve) [3]: ~0.5 µg/mL
IC50 (read off the curve) [4]: ~0.03 µg/mL
IC50 (read off the curve) [5]: ~0.06 µg/mL
koff (EDIII-DV3 [6]): 0.0102 s⁻¹
kon (EDIII-DV3 [6]): 1.34e+06 M⁻¹ s⁻¹
koff (EDIII-DV2 [7]): 0.0123 s⁻¹
kon (EDIII-DV2 [7]): 1.98e+06 M⁻¹ s⁻¹
koff (EDIII-DV1 [8]): 0.000551 s⁻¹
kon (EDIII-DV1 [8]): 1.11e+06 M⁻¹ s⁻¹
Kd (EDIII-DV3 [9]): 21.8 nM
Kd (EDIII-DV2 [10]): 5.2 nM
Kd (EDIII-DV1 [11]): 0.328 nM
Kd (EDIII-DV3 [12]): 21.8 nM
Kd (EDIII-DV2 [13]): 5.2 nM
Kd (EDIII-DV1 [14]): 0.328 nM

B2: 4E5A (antibody, V domains shown)
VH: B1 VH with A54E
VL: B1 VL with R31K, N57E, E59Q, S60W
notes: also called 4E11-5A; quintuple mutant antibody
Kd (EDIII-DV2 [15]): 0.7 nM
FRNT50 [16]: 0.77 µg/mL
FRNT50 [17]: 4 µg/mL
FRNT50 [18]: 0.028 µg/mL
FRNT50 [19]: 0.19 µg/mL

B3: 4E11 VH Ala55Asp single mutant (antibody, V domains shown)
VH: B1 VH with A54D
VL: B1 VL
notes: also called A55D
binding result (EDIII-DV3 [20]): binds
binding result (EDIII-DV2 [21]): binds
binding result (EDIII-DV1 [22]): binds
binding result (EDIII-DV4 [23]): binds

B4: 4E11 VH-A55E single mutant (antibody, V domains shown)
VH: B1 VH with A54E
VL: B1 VL
ΔG (EDIII-DV4 [24]): -7.29 kcal/mol
ΔΔG (ΔGmutant - ΔGWT) (EDIII-DV4 [24]): -1.31 kcal/mol
Kd (EDIII-DV4 [25]): 4440 nM

B5: 4E11 VL Asn57Ser single mutant (antibody, V domains shown)
VH: B1 VH
VL: B1 VL with N57S
binding result (EDIII-DV3 [20]): binds
binding result (EDIII-DV2 [21]): binds
binding result (EDIII-DV1 [22]): binds
binding result (EDIII-DV4 [23]): binds

B6: 4E11 VL Glu59Asn single mutant (antibody, V domains shown)
VH: B1 VH
VL: B1 VL with E59N
notes: also called E59N
binding result (EDIII-DV3 [20]): binds
binding result (EDIII-DV2 [21]): binds
binding result (EDIII-DV1 [22]): binds
binding result (EDIII-DV4 [23]): binds

B7: 4E11 VL Ser60Arg single mutant (antibody, V domains shown)
VH: B1 VH
VL: B1 VL with S60R
notes: also called S60R
binding result (EDIII-DV3 [20]): binds
binding result (EDIII-DV2 [21]): binds
binding result (EDIII-DV1 [22]): binds
binding result (EDIII-DV4 [23]): binds

B8: 4E11 VL Ser60Tyr single mutant (antibody, V domains shown)
VH: B1 VH
VL: B1 VL with S60Y
notes: also called S60Y
binding result (EDIII-DV3 [20]): binds
binding result (EDIII-DV2 [21]): binds
binding result (EDIII-DV1 [22]): binds
binding result (EDIII-DV4 [23]): binds

B9: 4E11 VL-E59Q single mutant (antibody, V domains shown)
VH: B1 VH
VL: B1 VL with E59Q
binding result (EDIII-DV2 [21]): binds
ΔG (EDIII-DV4 [24]): -6.76 kcal/mol
ΔΔG (ΔGmutant - ΔGWT) (EDIII-DV4 [24]): -0.77 kcal/mol
Kd (EDIII-DV4 [25]): 11000 nM

B10: 4E11 VL-N57E single mutant (antibody, V domains shown)
VH: B1 VH
VL: B1 VL with N57E
ΔG (EDIII-DV4 [24]): -6.92 kcal/mol
ΔΔG (ΔGmutant - ΔGWT) (EDIII-DV4 [24]): -0.93 kcal/mol
Kd (EDIII-DV4 [25]): 8410 nM

B11: 4E11 VL-R31K single mutant (antibody, V domains shown)
VH: B1 VH
VL: B1 VL with R31K
binding result (EDIII-DV2 [21]): binds

B12: 4E11 VL-S60W single mutant (antibody, V domains shown)
VH: B1 VH
VL: B1 VL with S60W
binding result (EDIII-DV2 [21]): binds
